From patent US20220054617A1, “SUBUNIT VACCINE CONSTRUCTS FOR FLAVIVIRUSES” (priority 2018, published 2022)
Entries after “also recorded” stand apart in the source; their conditions may differ.

Key:
DENV-4 = assay: ADE / protection against DENV-4 by rabbit antisera (CPE/cell death, 4G2 immunostain); type: cell-based, dengue virus; conditions: in vitro challenge
DENV-1 = assay: ADE / protection against DENV-1 by rabbit antisera (CPE/cell death, 4G2 immunostain); type: cell-based, dengue virus; conditions: in vitro challenge
DENV-1 antigen = target: T1, DENV-1 antigen (Dengue virus type 1, UniProt P17763, A649T/F617I/M577V/S619T/V660I); assay: Serological cross reactivity matrix (ELISA), DENV-1 antigen; type: binding; conditions: Immune-2 rabbit sera
T1 construct: made in house; host or cells: E. coli BL21(DE3)-pRARE
Excerpt: (§1) FIG. 10B-FIG. 10C show exemplary results of a serological cross reactivity matrix. Immune-2 sera from rabbits immunized with the 6 antigens were screened by ELISA for homologous titers. Samples with highest titers were examined for immunoreactivity with all antigens. […] DENV-1 Ag is recognized by anti-DENV-3 and anti-ZIKV antisera. Conversely, anti-DENV-3 antisera recognizes ZIKV antigen. Anti-ZIKV antisera recognizes WNV antigen very strongly.

ZIKV antigen = target: T2, ZIKV antigen (Zika virus, UniProt Q32ZE1); assay: Serological cross reactivity matrix (ELISA), ZIKV antigen; type: binding; conditions: Immune-2 rabbit sera
T2 construct: made in house; host or cells: E. coli BL21(DE3)-pRARE
Excerpt: as §1

DENV-2 = assay: Seroconversion, DENV-2-specific IgG titers; type: in vivo, rabbits; conditions: three immunization regimes of Table 8
Method: (§2) Pre-immune test-bleeds are first obtained from adult New Zealand White rabbits via venipuncture of the marginal vein of the ear on Day 1. The rabbits are immunized intramuscularly in the flank region with (a) 10 μg of antigen in 0.2 mL saline (n=4 for non-adjuvanted, antigen+saline control cohort), or (b) 10 μg of antigen plus 100 μg of adjuvant in 0.2 mL saline (n=4 for antigen+adjuvant test cohorts). An aqueous formulation for all adjuvants and antigens is ensured. Animals are immunized on Days 1, 15, and 28. A final test-bleed is performed via the marginal vein of the ear on Day 38. Sera may be banked at −80° C. for further analysis.
(§3) Rabbits (n=4/cohort) were immunized with 10 μg each antigen per dose as described in the Standardized Rabbit Model of Immunogenicity modified as shown in Table 8.

DENV-3 = assay: Seroconversion, DENV-3-specific IgG titers; type: in vivo, rabbits; conditions: three immunization regimes of Table 8
Method: as §2, §3

T2 sequence (Q32ZE1 582-689, looked up, natural form): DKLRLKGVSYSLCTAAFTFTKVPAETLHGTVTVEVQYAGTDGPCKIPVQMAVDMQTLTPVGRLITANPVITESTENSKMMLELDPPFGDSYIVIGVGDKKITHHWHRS
T1 sequence (P17763 571-673, looked up, stated change not applied): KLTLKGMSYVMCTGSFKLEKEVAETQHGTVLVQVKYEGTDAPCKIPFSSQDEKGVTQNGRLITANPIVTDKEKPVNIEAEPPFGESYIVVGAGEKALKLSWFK

B1: DENV-3: DENV-3 E-glycoprotein subunit antigen, SEQ ID NO: 4 (protein)
chain: SNALKGMSYAMCTNTFVLKKEVSETQHGTILIKVEYKGEDAPCKIPFSTEDGQGKAHNGRLITANPVVTKKEEPVNIEAEPPFGESNIVIGIGDNALKINWYKK
modifications: Dengue virus 3
With B1 the “protection / neutralization against DENV-4 (heterologous)” value (DENV-4) was “neutralizes”, the “protection / neutralization against DENV-1 (heterologous)” value (DENV-1) was “neutralizes; also recorded: prominent heterologous protection” and the “cross-reactivity of antisera with DENV-1 antigen” value (DENV-1 antigen) was “Significant cross-reactivity; also recorded: recognized”. The “cross-reactivity of antisera with ZIKV antigen” value (ZIKV antigen) was “reciprocal cross-reactivity was evident; also recorded: recognizes”.

B2: SGp(L)-DENV-2: SGp(L) fusion of DENV-2 antigen, SEQ ID NO: 39 (protein)
chain: MHHHHHHSTSLAEAKVLANRELDKYGVSDYYKNLINNAKTVEGVKALIDEILAALPKGTQLKGMSYSMCTGKFKVVKEIAETQHGTIVVRVQYEGDGSPCKIPFEIMDLEKRHVLGRLITVNPIVTEKDSPVNIEAEPPFGDSYIIIGVEPGQLKLSWFKK
B2 was tested, and the “seroconversion (DENV-2-specific IgG titers)” value (DENV-2) was “equivalence between all three immunization regimes”.

B3: SGp(L)-DENV-3: SGp(L) fusion of DENV-3 antigen, SEQ ID NO: 40 (protein)
chain: MHHHHHHSTSLAEAKVLANRELDKYGVSDYYKNLINNAKTVEGVKALIDEILAALPKGTLKGMSYAMCTNTFVLKKEVSETQHGTILIKVEYKGEDAPCKIPFSTEDGQGKAHNGRLITANPVVTKKEEPVNIEAEPPFGESNIVIGIGDNALKINWYKK
B3 was tested, and the “seroconversion (DENV-3-specific IgG titers)” value (DENV-3) was “equivalence between all three immunization regimes”.
